The record followed here is PMC2937035.

Common to all, as to experiment: protein microarray
Common to all, as to conditions: Protein microarray binding buffer, salt, pH and temperature not given in the material

The subject of series [1] is Khd1 (Hek2) (Saccharomyces cerevisiae).
For series [2], the system named is Mdh3 (Saccharomyces cerevisiae).
In series [3] the test system is Ydl124w (Saccharomyces cerevisiae).
Series [4] concerns Rrp5 (Saccharomyces cerevisiae).
Series [5] relates to Gcy1 (Saccharomyces cerevisiae).
The test system of series [6] is Scp160 (Saccharomyces cerevisiae).
Series [7] relates to Npl3 (Saccharomyces cerevisiae).
Series [8] concerns Pcs60 (Saccharomyces cerevisiae).
Series [9] concerns She2 (Saccharomyces cerevisiae).

As to ASH1 mRNA, in series [1], the binding signal (normalized mean signal (Cy3); Cy5 24.0) worked out at 3.4. Moreover, the binding signal (normalized mean signal (Cy3); Cy5 60.2) in [2] is 2.9. Also, the binding signal (normalized mean signal (Cy3); Cy5 14.6) in [3] was found to be 11.9; in [4], 3.8. Moreover, the binding signal (normalized mean signal (Cy3); Cy5 19.6) in [5] turned out to be 8.9. Also, the binding signal (normalized mean signal (Cy3); Cy5 117.7) in series [6] came to 2.9. In addition, the binding signal (normalized mean signal (Cy3); Cy5 153.8) in series [7] is 7.1. Besides, the binding signal (normalized mean signal (Cy3); Cy5 89.8) in series [8] was 3.7. For the same substance, the binding signal (normalized mean signal (Cy3); Cy5 17.8) in series [9] is 17.1.
